Assay results published in patent publication US20220226375A1 (CRISPR THERAPEUTICS, published 2022).

Key:
[1] = molecular target: CD33 on the surface of human cells (AML cell lines THP-1, KG-1, MV4-11; activated primary human T cells) (human, UniProt P20138 18-364); assay: cell-based or functional assay
[2] = molecular target: T1, CD33 protein (AcroBiosystems) conjugated to biotin (UniProt P20138 18-259, biotinylated (site not stated)); assay: flow cytometry; cell-surface CAR on edited T cells labelled with biotinylated CD33 protein and streptavidin-APC
T1 construct: Soluble bought reagent used at 2 ug/uL with streptavidin-APC to label cell-surface anti-CD33 CAR; also called biotinylated CD33 protein, CD3-H82E7
Experimental: About one (1) week post electroporation, gene-edited T cells were analyzed by flow cytometry to assess the percentage of the cell population that expressed an anti-CD33 CAR. Labeling of cell-surface anti-CD33 CAR was done with a combination of a CD33 protein (AcroBiosystems) conjugated to biotin and a streptavidin-APC secondary reagent (FIG. 1A, FIG. 1B and FIG. 1C). […] In contrast, certain T cells generated with a TRAC and B2M gene disruption and a CAR construct did result in a high percentage of the population that expressed an anti-CD33 CAR. […] However, not all T cells prepared with a CAR construct had CAR expression. […] Indeed, this outcome was not altered by switching the CAR co-stimulatory domain (e.g., CTX-964 compared to CTX-964b).

T1 sequence (P20138 18-259 limits assumed): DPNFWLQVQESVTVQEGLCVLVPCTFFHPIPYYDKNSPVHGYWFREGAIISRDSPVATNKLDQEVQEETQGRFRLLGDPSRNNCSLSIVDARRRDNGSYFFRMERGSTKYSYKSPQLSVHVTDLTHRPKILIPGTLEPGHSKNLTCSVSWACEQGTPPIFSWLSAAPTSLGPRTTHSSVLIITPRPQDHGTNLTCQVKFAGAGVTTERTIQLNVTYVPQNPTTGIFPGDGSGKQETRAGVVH
CD33 on the surface of human cells (AML cell lines THP-1, KG-1, MV4-11; activated primary human T cells), sequence (P20138 18-364): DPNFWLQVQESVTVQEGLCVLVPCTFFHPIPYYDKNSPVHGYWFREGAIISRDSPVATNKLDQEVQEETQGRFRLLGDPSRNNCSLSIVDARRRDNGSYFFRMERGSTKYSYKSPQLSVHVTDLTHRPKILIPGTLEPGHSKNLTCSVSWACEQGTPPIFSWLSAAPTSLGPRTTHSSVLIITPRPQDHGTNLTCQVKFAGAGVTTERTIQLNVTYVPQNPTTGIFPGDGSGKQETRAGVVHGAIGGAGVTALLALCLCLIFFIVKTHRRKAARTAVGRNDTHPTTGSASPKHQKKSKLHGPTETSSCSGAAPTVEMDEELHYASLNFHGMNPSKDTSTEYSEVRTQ

percent cell lysis of CD33 KO MV4-11 cells (CD33-deficient comparison) at 1:1 ratio [1] | binding result [2] | Binder
> 60% | – | CTX-982b CAR (anti-CD33 CAR, Antibody C scFv VH-VL, 41BB co-stimulatory domain, CD3z) (other) EVQLVQSGAEVKKPGSSVKVSCKASGYTITDSNIHWVRQAPGQSLEWIGYIYPYNGGTDYNQKFKNRATLTVDNPTNTAYMELSSLRSEDTAFYYCVNGNPWLAYWGQGTLVTVSSGGGGSGGGGSGGGGSDIQLTQSPSTLSASVGDRVTITCRASESLDNYGIRFLTWFQQKPGKAPKLLMYAASNQGSGVPSRFSGSGSGTEFTLTISSLQPDDFATYYCQQTKEVPWSFGQGTKVEVKSAAAFVPVFLPAKPTTTPAPRPPTPAPTIASQPLSLRPEACRPAAGGAVHTRGLDFACDIYIWAPLAGTCGVLLLSLVITLYCNHRNRKRGRKKLLYIFKQPFMRPVQTTQEEDGCSCRFPEEEEGGCELRVKFSRSADAPAYQQGQNQLYNELNLGRREEYDVLDKRRGRDPEMGGKPRRKNPQEGLYNELQKDKMAEAYSEIGMKGERRRGKGHDGLYQGLSTATKDTYDALHMQALPPR
– | binds | CTX-982 CAR (anti-CD33 CAR, Antibody C scFv VH-VL, CD28 co-stimulatory domain, CD3z) (other) EVQLVQSGAEVKKPGSSVKVSCKASGYTITDSNIHWVRQAPGQSLEWIGYIYPYNGGTDYNQKFKNRATLTVDNPTNTAYMELSSLRSEDTAFYYCVNGNPWLAYWGQGTLVTVSSGGGGSGGGGSGGGGSDIQLTQSPSTLSASVGDRVTITCRASESLDNYGIRFLTWFQQKPGKAPKLLMYAASNQGSGVPSRFSGSGSGTEFTLTISSLQPDDFATYYCQQTKEVPWSFGQGTKVEVKSAAAFVPVFLPAKPTTTPAPRPPTPAPTIASQPLSLRPEACRPAAGGAVHTRGLDFACDIYIWAPLAGTCGVLLLSLVITLYCNHRNRSKRSRLLHSDYMNMTPRRPGPTRKHYQPYAPPRDFAAYRSRVKFSRSADAPAYQQGQNQLYNELNLGRREEYDVLDKRRGRDPEMGGKPRRKNPQEGLYNELQKDKMAEAYSEIGMKGERRRGKGHDGLYQGLSTATKDTYDALHMQALPPR
– | binds | CTX-969 CAR (anti-CD33 CAR, Antibody B scFv VH-VL, CD28 co-stimulatory domain, CD3z) (other) QVQLVQSGAEVKKPGASVKVSCKASGYTFTNYDINWVRQAPGQGLEWIGWIYPGDGSTKYNEKFKAKATLTADTSTSTAYMELRSLRSDDTAVYYCASGYEDAMDYWGQGTTVTVSSGGGGGSGGGGSGGGGSDIQMTQSPSSLSASVGDRVTINCKASQDINSYLSWFQQKPGKAPKTLIYRANRLVDGVPSRFSGSGSGQDYTLTISSLQPEDFATYYCLQYDEFPLTFGGGTKVEIKSAAAFVPVFLPAKPTTTPAPRPPTPAPTIASQPLSLRPEACRPAAGGAVHTRGLDFACDIYIWAPLAGTCGVLLLSLVITLYCNHRNRSKRSRLLHSDYMNMTPRRPGPTRKHYQPYAPPRDFAAYRSRVKFSRSADAPAYQQGQNQLYNELNLGRREEYDVLDKRRGRDPEMGGKPRRKNPQEGLYNELQKDKMAEAYSEIGMKGERRRGKGHDGLYQGLSTATKDTYDALHMQALPPR
